The values that follow come from paper PMC12416549 (2024).

The chains are these.
T1: TNFR1 (Homo sapiens, UniProt P19438)
T1 chain: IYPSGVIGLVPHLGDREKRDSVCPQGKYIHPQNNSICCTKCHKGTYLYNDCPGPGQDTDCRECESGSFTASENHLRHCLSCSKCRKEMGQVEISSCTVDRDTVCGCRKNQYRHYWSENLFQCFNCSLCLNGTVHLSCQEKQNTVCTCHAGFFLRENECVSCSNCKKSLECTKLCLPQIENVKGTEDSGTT

B1: A30T (designed binder)
chain: SMEEEVEKAAKEYEKKKKEAIEKHLEKLKTKDKEAAERFLKELEEAAKEYAKDEAKTMSEEEAKRRAKKYKEKVLLSELSEEEQKEIKEAEEKLVRTILKYVEEAAK
B2: I98M (designed binder)
chain: SMEEEVEKAAKEYEKKKKEAIEKHLEKLKAKDKEAAERFLKELEEAAKEYAKDEAKTMSEEEAKRRAKKYKEKVLLSELSEEEQKEIKEAEEKLVRTMLKYVEEAAK
B3: K52N (designed binder)
chain: SMEEEVEKAAKEYEKKKKEAIEKHLEKLKAKDKEAAERFLKELEEAAKEYANDEAKTMSEEEAKRRAKKYKEKVLLSELSEEEQKEIKEAEEKLVRTILKYVEEAAK
B4: K93D (designed binder)
chain: SMEEEVEKAAKEYEKKKKEAIEKHLEKLKAKDKEAAERFLKELEEAAKEYAKDEAKTMSEEEAKRRAKKYKEKVLLSELSEEEQKEIKEAEEDLVRTILKYVEEAAK
B5: K56F (designed binder)
chain: SMEEEVEKAAKEYEKKKKEAIEKHLEKLKAKDKEAAERFLKELEEAAKEYAKDEAFTMSEEEAKRRAKKYKEKVLLSELSEEEQKEIKEAEEKLVRTILKYVEEAAK
B6: K23C (designed binder)
chain: SMEEEVEKAAKEYEKKKKEAIECHLEKLKAKDKEAAERFLKELEEAAKEYAKDEAKTMSEEEAKRRAKKYKEKVLLSELSEEEQKEIKEAEEKLVRTILKYVEEAAK
B7: E61N (designed binder)
chain: SMEEEVEKAAKEYEKKKKEAIEKHLEKLKAKDKEAAERFLKELEEAAKEYAKDEAKTMSENEAKRRAKKYKEKVLLSELSEEEQKEIKEAEEKLVRTILKYVEEAAK
B8: V74W (designed binder)
chain: SMEEEVEKAAKEYEKKKKEAIEKHLEKLKAKDKEAAERFLKELEEAAKEYAKDEAKTMSEEEAKRRAKKYKEKWLLSELSEEEQKEIKEAEEKLVRTILKYVEEAAK
B9: E103A (designed binder)
chain: SMEEEVEKAAKEYEKKKKEAIEKHLEKLKAKDKEAAERFLKELEEAAKEYAKDEAKTMSEEEAKRRAKKYKEKVLLSELSEEEQKEIKEAEEKLVRTILKYVAEAAK
B10: A46P (designed binder)
chain: SMEEEVEKAAKEYEKKKKEAIEKHLEKLKAKDKEAAERFLKELEEPAKEYAKDEAKTMSEEEAKRRAKKYKEKVLLSELSEEEQKEIKEAEEKLVRTILKYVEEAAK
B11: A106P (designed binder)
chain: SMEEEVEKAAKEYEKKKKEAIEKHLEKLKAKDKEAAERFLKELEEAAKEYAKDEAKTMSEEEAKRRAKKYKEKVLLSELSEEEQKEIKEAEEKLVRTILKYVEEAPK
B12: E44A (designed binder)
chain: SMEEEVEKAAKEYEKKKKEAIEKHLEKLKAKDKEAAERFLKELAEAAKEYAKDEAKTMSEEEAKRRAKKYKEKVLLSELSEEEQKEIKEAEEKLVRTILKYVEEAAK
B13: R66A (designed binder)
chain: SMEEEVEKAAKEYEKKKKEAIEKHLEKLKAKDKEAAERFLKELEEAAKEYAKDEAKTMSEEEAKRAAKKYKEKVLLSELSEEEQKEIKEAEEKLVRTILKYVEEAAK
B14: I21K (designed binder)
chain: SMEEEVEKAAKEYEKKKKEAKEKHLEKLKAKDKEAAERFLKELEEAAKEYAKDEAKTMSEEEAKRRAKKYKEKVLLSELSEEEQKEIKEAEEKLVRTILKYVEEAAK
B15: E104K (designed binder)
chain: SMEEEVEKAAKEYEKKKKEAIEKHLEKLKAKDKEAAERFLKELEEAAKEYAKDEAKTMSEEEAKRRAKKYKEKVLLSELSEEEQKEIKEAEEKLVRTILKYVEKAAK
B16: A10N (designed binder)
chain: SMEEEVEKANKEYEKKKKEAIEKHLEKLKAKDKEAAERFLKELEEAAKEYAKDEAKTMSEEEAKRRAKKYKEKVLLSELSEEEQKEIKEAEEKLVRTILKYVEEAAK
B17: K27G (designed binder)
chain: SMEEEVEKAAKEYEKKKKEAIEKHLEGLKAKDKEAAERFLKELEEAAKEYAKDEAKTMSEEEAKRRAKKYKEKVLLSELSEEEQKEIKEAEEKLVRTILKYVEEAAK
B18: E92Q (designed binder)
chain: SMEEEVEKAAKEYEKKKKEAIEKHLEKLKAKDKEAAERFLKELEEAAKEYAKDEAKTMSEEEAKRRAKKYKEKVLLSELSEEEQKEIKEAEQKLVRTILKYVEEAAK
B19: E72I (designed binder)
chain: SMEEEVEKAAKEYEKKKKEAIEKHLEKLKAKDKEAAERFLKELEEAAKEYAKDEAKTMSEEEAKRRAKKYKIKVLLSELSEEEQKEIKEAEEKLVRTILKYVEEAAK
B20: Y101K (designed binder)
chain: SMEEEVEKAAKEYEKKKKEAIEKHLEKLKAKDKEAAERFLKELEEAAKEYAKDEAKTMSEEEAKRRAKKYKEKVLLSELSEEEQKEIKEAEEKLVRTILKKVEEAAK
B21: E104L (designed binder)
chain: SMEEEVEKAAKEYEKKKKEAIEKHLEKLKAKDKEAAERFLKELEEAAKEYAKDEAKTMSEEEAKRRAKKYKEKVLLSELSEEEQKEIKEAEEKLVRTILKYVELAAK
B22: A106R (designed binder)
chain: SMEEEVEKAAKEYEKKKKEAIEKHLEKLKAKDKEAAERFLKELEEAAKEYAKDEAKTMSEEEAKRRAKKYKEKVLLSELSEEEQKEIKEAEEKLVRTILKYVEEARK
B23: M2Y (designed binder)
chain: SYEEEVEKAAKEYEKKKKEAIEKHLEKLKAKDKEAAERFLKELEEAAKEYAKDEAKTMSEEEAKRRAKKYKEKVLLSELSEEEQKEIKEAEEKLVRTILKYVEEAAK
B24: A35K (designed binder)
chain: SMEEEVEKAAKEYEKKKKEAIEKHLEKLKAKDKEKAERFLKELEEAAKEYAKDEAKTMSEEEAKRRAKKYKEKVLLSELSEEEQKEIKEAEEKLVRTILKYVEEAAK
B25: Y13G (designed binder)
chain: SMEEEVEKAAKEGEKKKKEAIEKHLEKLKAKDKEAAERFLKELEEAAKEYAKDEAKTMSEEEAKRRAKKYKEKVLLSELSEEEQKEIKEAEEKLVRTILKYVEEAAK
B26: L94Q (designed binder)
chain: SMEEEVEKAAKEYEKKKKEAIEKHLEKLKAKDKEAAERFLKELEEAAKEYAKDEAKTMSEEEAKRRAKKYKEKVLLSELSEEEQKEIKEAEEKQVRTILKYVEEAAK
B27: H24I (designed binder)
chain: SMEEEVEKAAKEYEKKKKEAIEKILEKLKAKDKEAAERFLKELEEAAKEYAKDEAKTMSEEEAKRRAKKYKEKVLLSELSEEEQKEIKEAEEKLVRTILKYVEEAAK
B28: A63I (designed binder)
chain: SMEEEVEKAAKEYEKKKKEAIEKHLEKLKAKDKEAAERFLKELEEAAKEYAKDEAKTMSEEEIKRRAKKYKEKVLLSELSEEEQKEIKEAEEKLVRTILKYVEEAAK
B29: K33G (designed binder)
chain: SMEEEVEKAAKEYEKKKKEAIEKHLEKLKAKDGEAAERFLKELEEAAKEYAKDEAKTMSEEEAKRRAKKYKEKVLLSELSEEEQKEIKEAEEKLVRTILKYVEEAAK
B30: K52Y (designed binder)
chain: SMEEEVEKAAKEYEKKKKEAIEKHLEKLKAKDKEAAERFLKELEEAAKEYAYDEAKTMSEEEAKRRAKKYKEKVLLSELSEEEQKEIKEAEEKLVRTILKYVEEAAK
B31: M2D (designed binder)
chain: SDEEEVEKAAKEYEKKKKEAIEKHLEKLKAKDKEAAERFLKELEEAAKEYAKDEAKTMSEEEAKRRAKKYKEKVLLSELSEEEQKEIKEAEEKLVRTILKYVEEAAK
B32: R96G (designed binder)
chain: SMEEEVEKAAKEYEKKKKEAIEKHLEKLKAKDKEAAERFLKELEEAAKEYAKDEAKTMSEEEAKRRAKKYKEKVLLSELSEEEQKEIKEAEEKLVGTILKYVEEAAK
B33: L43Y (designed binder)
chain: SMEEEVEKAAKEYEKKKKEAIEKHLEKLKAKDKEAAERFLKEYEEAAKEYAKDEAKTMSEEEAKRRAKKYKEKVLLSELSEEEQKEIKEAEEKLVRTILKYVEEAAK

The target of the experiment is T1, TNFR1. Briefly: yeast display SC50.
Regarding B1, the “apparent Kd (screen)” value worked out at 1.16 nM.

Consider B2, for which the “apparent Kd (screen)” value amounted to 5.31 nM.

B3: the “apparent Kd (screen)” value came to 0.869 nM.

On to B4, for which the “apparent Kd (screen)” value was 0.446 nM.

On to B5, for which the “apparent Kd (screen)” value was 3.63 nM.

In the case of B6, the “apparent Kd (screen)” value was 0.49 nM.

In the case of B7, the “apparent Kd (screen)” value came to 1.4 nM.

For the molecule B8, the “apparent Kd (screen)” value was determined as 0.49 nM.

Consider B9, for which the “apparent Kd (screen)” value was found to be 0.446 nM.

For the molecule B10, the “apparent Kd (screen)” value came out at 11.4 nM.

In the case of B11, the “apparent Kd (screen)” value worked out at 0.653 nM.

B12: the “apparent Kd (screen)” value was determined as 0.956 nM.

As for B13, the “apparent Kd (screen)” value amounted to 20.2 nM.

As to B14, the “apparent Kd (screen)” value amounted to 0.446 nM.

Regarding B15, the “apparent Kd (screen)” value amounted to 0.446 nM.

For the molecule B16, the “apparent Kd (screen)” value is 2.48 nM.

For B17, the “apparent Kd (screen)” value is 0.79 nM.

Regarding B18, the “apparent Kd (screen)” value amounted to 6.43 nM.

With B19, the “apparent Kd (screen)” value was 0.718 nM.

B20: the “apparent Kd (screen)” value was determined as 0.446 nM.

As to B21, the “apparent Kd (screen)” value amounted to 0.49 nM.

B22: the “apparent Kd (screen)” value came to 3 nM.

Turning to B23, the “apparent Kd (screen)” value was determined as 0.49 nM.

On to B24, for which the “apparent Kd (screen)” value came out at 0.49 nM.

Consider B25, for which the “apparent Kd (screen)” value came out at 2.48 nM.

In the case of B26, the “apparent Kd (screen)” value was 1.16 nM.

For B27, the “apparent Kd (screen)” value stood at 2.73 nM.

For B28, the “apparent Kd (screen)” value was 4.83 nM.

For the molecule B29, the “apparent Kd (screen)” value was 1.16 nM.

For the molecule B30, the “apparent Kd (screen)” value turned out to be 2.48 nM.

Regarding B31, the “apparent Kd (screen)” value amounted to 0.446 nM.

As to B32, the “apparent Kd (screen)” value amounted to 2.73 nM.

Take B33: the “apparent Kd (screen)” value was found to be 5.84 nM.
